{"source": "patent US20260085105A1", "about": "(Amgen, published 2026)", "binders": {"B1": {"name": "TCR3 of Tables 1A and 1B (TCR2 of the examples) (TCR, V domains shown)", "Valpha": "GESVGLHLPTLSVQEGDNSIINCAYSNSASDYFIWYKQESGKGPQFIIDIRSNMDKRQGQRVTVLLNKTVKHLSLQIAATQPGDSAVYFCAEASPRQDTGRRALTFGSGTRLQVQP", "Vbeta": "DAGVTQSPTHLIKTRGQQVTLRCSPKSGHDTVSWYQQALGQGPQFIFQYYEEEERQRGNFPDRFSGHQFPNYSSELNVNALLLGDSALYLCASSLWTGSGELFFGEGSRLTVL"}}, "key": {"[1]": {"target": "T1, HERC4 peptide on HLA-A*02:01 (human)", "T1 peptide": "KVLEILHRV", "experiment": "killing"}, "[2]": {"target": "T2, PSME2 peptide on HLA-A*02:01 (human)", "T2 peptide": "KVLERVNAV", "experiment": "killing"}, "[3]": {"target": "T3, TP2 peptide on HLA-A*02:01 (human)", "T3 peptide": "KILEDVVGV", "experiment": "killing"}, "[4]": {"target": "T4, HTR5A peptide on HLA-A*02:01 (human)", "T4 peptide": "KVLETLVTV", "experiment": "killing"}, "[5]": {"target": "T5, RG1L peptide on HLA-A*02:01 (human)", "T5 peptide": "FLLETVVRV", "experiment": "killing"}, "[6]": {"target": "T6, CNOT1 peptide on HLA-A*02:01 (human)", "T6 peptide": "KVLGIVVGV", "experiment": "killing"}, "[7]": {"target": "T7, ATAD2 peptide on HLA-A*02:01 (human)", "T7 peptide": "KILEALQRV", "experiment": "killing"}, "[8]": {"target": "T8, GPC5 peptide on HLA-A*02:01 (human)", "T8 peptide": "KLLEQVNRI", "experiment": "killing"}, "[9]": {"target": "T9, MIA3 peptide on HLA-A*02:01 (human)", "T9 peptide": "KVLDKVFRA", "experiment": "killing"}, "[10]": {"target": "T10, SYNE3 peptide on HLA-A*02:01 (human)", "T10 peptide": "KLLDLQVRV", "experiment": "killing"}, "[11]": {"target": "T11, ANO5 peptide on HLA-A*02:01 (human)", "T11 peptide": "IVMEHVVFL", "experiment": "killing"}, "[12]": {"target": "T12, AXIN1 peptide on HLA-A*02:01 (human)", "T12 peptide": "ILDEHVQRV", "experiment": "killing"}, "[13]": {"target": "T13, GRP78 peptide on HLA-A*02:01 (human)", "T13 peptide": "KVTHAVVTV", "experiment": "killing"}, "[14]": {"target": "T14, PTRF peptide on HLA-A*02:01 (human)", "T14 peptide": "KLLEKVRKV", "experiment": "killing"}, "[15]": {"target": "T15, TRMT1L peptide on HLA-A*02:01 (human)", "T15 peptide": "VALEHFVLV", "experiment": "killing"}, "[16]": {"target": "T16, KIAA1033 peptide on HLA-A*02:01 (human)", "T16 peptide": "KVLNKVITV", "experiment": "killing"}, "[17]": {"target": "T17, NSD1 peptide on HLA-A*02:01 (human)", "T17 peptide": "KVQEQVHKV", "experiment": "killing"}, "[18]": {"target": "T18, HNRNPR peptide on HLA-A*02:01 (human)", "T18 peptide": "KVWGNVVTV", "experiment": "killing"}, "[19]": {"target": "T19, TSC1 peptide on HLA-A*02:01 (human)", "T19 peptide": "SLLGHVIRL", "experiment": "killing"}, "[20]": {"target": "T20, MADD peptide on HLA-A*02:01 (human)", "T20 peptide": "ILLEHKVVL", "experiment": "killing"}, "[21]": {"target": "T21, MAGE-A4 (100% identical in MAGEA8) peptide on HLA-A*02:05 (human)", "T21 peptide": "KVLEHVVRV", "experiment": "killing"}, "[22]": {"target": "T22, MAGE-A4 (100% identical in MAGEA8) peptide on HLA-A*02:07 (human)", "T22 peptide": "KVLEHVVRV", "experiment": "killing"}, "[23]": {"target": "T23, MAGE-A4 (100% identical in MAGEA8) peptide on HLA-A*02:01 (human)", "T23 peptide": "KVLEHVVRV", "experiment": "cells that express the antigen: NCI-H1755; TCR-Ts of three donors; full-length, on cells"}}}
{"binder": "B1", "values": [{"measurement": "binding result", "setting": "[1]", "value": "no recognition"}, {"measurement": "binding result", "setting": "[2]", "value": "no recognition"}, {"measurement": "binding result", "setting": "[3]", "value": "no recognition"}, {"measurement": "binding result", "setting": "[4]", "value": "no recognition"}, {"measurement": "binding result", "setting": "[5]", "value": "no recognition"}, {"measurement": "binding result", "setting": "[6]", "value": "no recognition"}, {"measurement": "binding result", "setting": "[7]", "value": "no recognition"}, {"measurement": "binding result", "setting": "[8]", "value": "no recognition"}, {"measurement": "binding result", "setting": "[9]", "value": "no recognition"}, {"measurement": "binding result", "setting": "[10]", "value": "no recognition"}, {"measurement": "binding result", "setting": "[11]", "value": "no recognition"}, {"measurement": "binding result", "setting": "[12]", "value": "no recognition"}, {"measurement": "binding result", "setting": "[13]", "value": "no recognition"}, {"measurement": "binding result", "setting": "[14]", "value": "no recognition"}, {"measurement": "binding result", "setting": "[15]", "value": "no recognition"}, {"measurement": "binding result", "setting": "[16]", "value": "no recognition"}, {"measurement": "binding result", "setting": "[17]", "value": "no recognition"}, {"measurement": "binding result", "setting": "[18]", "value": "no recognition"}, {"measurement": "binding result", "setting": "[19]", "value": "no recognition"}, {"measurement": "binding result", "setting": "[20]", "value": "no recognition"}, {"measurement": "binding result", "setting": "[21]", "value": "recognises"}, {"measurement": "binding result", "setting": "[22]", "value": "recognises"}, {"measurement": "E:T EC50", "setting": "[23]", "value": "0.01 effector:target ratio"}]}
